Source: patent US8962263B2, “Methods and compositions for detecting the activation state of multiple proteins in single cells” (The Board of Trustees of the Leland Stanford Junior …, priority 2001, dated 2015)

Columns and labels:
NIH3T3 = experiment: staurosporine induced apoptosis in ICAM-2 transduced NIH3T3 (annexin-V binding, BrdU TUNEL); format: cell-based, murine
Method in brief: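 ICAM-2, ICAM2-ΔC or vector-transduced NIH3T3 cells treated with 1 μM staurosporine, with or without 10 μM LY294002, 24 h; DMSO vehicle control. Apoptosis by flow cytometry: annexin-V-FITC/PI at 12 h, BrdU TUNEL at 24 h; percent apoptotic cells, mean ± SD of triplicate cultures.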

[1] = system: CD56 CD8 cytotoxic lymphocyte subsets; experiment: intracellular perforin and granzyme-A in CD56CD8 subsets of human PBMC by flow cytometry; format: cell-based
Description: IL-2, activated PBMC (shown in A-1 and A-3) were mock-treated (IgG) (A-2) , ICAM-1, (A2), ICAM-2, (A4), or ICAM-3, (A4) treated (10, μg/ml of FC fusion protein) for 12 hrs prior to incubation with target HL60, cells at a 50:1, E:T ratio for 4, hrs. Cells were then prepared for flow cytometry with CD8-CY5PE, CD56-PE surface stains, and perforin-CY5, and granzyme-A-FITC intracellular stains. Cells were gated for CD56^+CD8^low, CD56^+CD8^med, CD56^+, CD8^high, CD56^−, CD8^−, , CD56^−-CD8^high, populations as shown in A-1 and A-3 and population frequencies within appropriate gate. […] Results are representative of 3 independent experiments and were similar at 25:1 and 12.5:1 E:T ratios (data not shown). Manual calibration was performed. […] Perforin percentage was calculated from the following equation where MFI equals mean fluorescent intensity: 100×[(MFIexperimental−MFIisotype mAb)/(MFIcontrol−MFlisotype mAb)] Unstimulated cells were used as control.
(§1) Target cell lysis was measured by flow cytoemtric based detection of CFSE labeled HL60 cells. HL60 cells were labeled with 1 μg of CFSE (30 min, 37° C.). Targets were washed twice and mock treated, IL-2 activated (100 U/ml), CD3/CD28 activated (1 μg/ml), or treated with ICAM2 beads or soluble ICAM-1, -2, or 3 (10 μg/ml, 30 min, 37° C.) before plating at 10^4 target cells/well of a 96-well round bottom plate. CTLs were added at 50:1, 25:1, and 12.5:1 E:T ratio, and incubated at 37° C. for 4 hrs. Cells were then processed for multiparameter flow cytometry and intracellular perforin stain. Percent specific lysis was calculated by the following equation: % specific lysis=100-100×(experimental HL60 count/total control HL60 count). HL60 counts were detectable by the CFSE fluorescence. Percent perforin was calculated by the following equation: % perforin=100×[(experimental perforin MFI−isotype mAb MFI)/(total perforin MFI−isotype mAb MFI)]. MFI refers to mean fluorescent intensity of flow cytoemtric based intracellular detection. Cell conjugates were determined by flow cytometry as described (Morgan et al., 2001). Chemical inhibition was done at 10 μM of indicated compound (30 min, 37° C.) prior to stimulation as indicated. All experiments were performed in triplicate.

HL60 cells = experiment: FACS based effector-target killing assay, human PBMC against CFSE labeled HL60 cells; format: cell-based; conditions: 10 μg/ml, 50:1 E:T ratio, 4 hrs
Description: A) PBMC were either treated with ICAM-2, (10 μg/ml) in the presence of IL-2, for 12, hr and then incubated with CFSE labeled target HL60, cells at a 50:1, E:T ratio for 4, hrs. Remaining HL60, cells were quantified by flow cytometry. B) PBMC were treated with IL-2, (100, U/ml, 12, hrs) and treated with ICAM-1,-2, or 3, FC proteins (10, μg/ml) and used in a cytotoxicity assay as described above. Results are representative of 4, independent experiments.
as §1

`CN(C)CCCn1cc(C2=C(c3c[nH]c4ccccc34)C(=O)NC2=O)c2ccccc21` [bisindolymaleimide I] was tested, and the “ICAM-2 induced survival signal” value (NIH3T3; PKC isozyme inhibitors, system not specified) was “did not abrogate” and the “effect on ICAM-2 anti-apoptotic effect, other kinase inhibitors” value (NIH3T3; cell type not stated, data not shown) was “not abrogated”.

B1: ICAM-2: biochemically purified soluble human ICAM-2 protein from retrovirally transduced NIH3T3 cells; ICAM-2-FC fusion also used (protein, UniProt P13598 25-223, looked up)
extracellular domain: KVFEVHVRPKKLAVEPKGSLEVNCSTTCNQPEVGGLETSLDKILLDEQAQWKHYLVSNISHDTVLQCHFTCSGKQESMNSNVSVYQPPRQVILTLQPTLVAVGKSFTIECRVPTVEPLDSLTLFLFRGNETLHYETFGKAAPAPQEATATFNSTADREDGHRNFSCLAVLDLMSRGGNIFHKHSAPKMLEIYEPVSDSQ
modifications: extracellular domain
notes: biochemically purified soluble human ICAM-2 protein from retrovirally transduced NIH3T3 cells; ICAM-2-FC fusion also used
With B1 the granzyme-A negative population ([1]; CD56+CD8high population) was 58.3%, the “changes in intracellular perforin or granzyme-A” value ([1]; CD56+CD8low population) was “no significant changes” and the “frequency of the perforin negative population” value ([1]; CD56+CD8med population) was 21.5%. For the same molecule, the “target cell lysis of HL60 cells” value (HL60 cells) was “could initiate target cell lysis in the presence of IL-2 but not in the absence of IL-2”.
